Measured values reported in patent publication US20050203281A1, “Production of recombinant fragments of muscle acetylcholine receptor and their use for ex vivo immunoadsorption of anti-ch receptor antibodies from myasthenic patients” (priority 2002, published 2005).
“Also recorded” adds a separate entry of the source.

Key:
[1] = molecular target: alpha1-210 fragment (Homo sapiens, UniProt P02708); details: read-out: concentration of unlabeled toxin giving 50% inhibition of 125I-alpha-BTX binding
[2] = test system: anti-AChR antibodies from MG sera; experiment: Immunoadsorption of anti-AChR antibodies from MG sera by CNBr-Sepharose-immobilized subunit domains, RIA with human AChR from TE671 cells; type: binding; details: for immunoadsorption of anti-AChR antibodies (in words): immobilized on Sepharose-CNBr
Description: FIG. 6 illustrates the immunoadsorption of anti-AChR antibodies from MG sera using immobilized alpha1-210 (black bars), gamma1-218 (grey bars) and epsilon1-219 (blank bars). Each subunit has been expressed in the yeast Pichia pastoris and the purified proteins have been covalently immobilized on CNBr-Sepharose beads. 64 MG positive sera were assayed for binding to human AChR after incubation with alpha1-210 immobilized on CNBr-Sepharose (together with BSA) or with just BSA immobilized on the same insoluble matrix. 2.5 ul of each MG patient serum were incubated with 0.2 ug immobilized alpha1-210 mixed with BSA or the same amount of BSA at […] for 2-3h (in a total volume of 0.16 ml) followed by centrifugation. Samples of the supernatants, each containing an amount corresponding to 0.9 ul of the treated MG sera were subsequently used in a typical RIA MG diagnostic test (Lindstrom et al., Meth. Enzymol. 74, 432460, 1981) with human AChR from TE671 cells. The percentage of immunoadsorption was estimated as described in the Example 3. Samples were processed in duplicates. Results shown (black bars) are an average of two experiments. Sera are sorted in decreasing percentage of immunoadsorption to immobilized alpha1-210.
FIG. 7 illustrates the immunoadsorption of anti-AChR antibodies from MG sera against immobilized alpha1-210 (black bars), gamma1-218 (gray bars) and a mix of both immobilized alpha1-210 and gamma1-218 (hatched bars). 9 MG sera were assayed for binding to human AChR after incubation of 20 fmoles anti-AChR MG antibodies with alpha1-210 (1 ug), or gamma1-218 (1 ug) or alpha1-210/gamma1-218 mix (containing 1 ug of each subunit) immobilized on CNBr-Sepharose. Incubation with just BSA immobilized to the same insoluble matrix served as a control to calculate the percent immunoadsorption against each of the subunits and the mix of both. After incubation with the Sepharose-immobilized proteins, sera were screened in a typical RIA experiment using TE671 AChR. The percentage of immunoadsorption was estimated as described in the Example 3. Samples were processed in duplicates. Results shown are an average of two experiments.
Immunoadsorption of MG autoantibodies by immobilized alpha1-210. 0.1 mg alpha1-210 mixed with 1.4 mg BSA was covalently bound to 0.5 gr CNBr-Sepharose according to manufacturer's protocol (Amersham). BSA was simply added to increase the protein/Sepharose ratio because the ratio of recombinant protein to Sepharose beads used would otherwise be too small; BSA is not necessary for larger scale experiments. In parallel, 1.5 mg BSA was bound to the same amount of CNBr-Sepharose under the same conditions as control. 2.5 ul MG patient sera were incubated with 0.2 ug immobilized alpha1-210 mixed with BSA, or the same amount of immobilized BSA alone, at 4° C. for 2-3 h (in a total volume of 0.16 ml) followed by centrifugation for bead precipitation. Samples of the supernatants, each containing an amount corresponding to 0.9 ul of these treated MG sera were subsequently used in a typical RIA MG diagnostic test (Lindstrom et al., Meth. Enzymol. 74, 432460, 1981) with human AChR from TE671 cells. The percentage of immunoadsorption was estimated as the ratio between the reduction in immunoprecipitated radiolabeled human AChR after incubation with alpha1-210 and the immunoprecipitated radiolabeled human AChR without incubation with alpha1-210 (incubation with plain immobilized BSA). 64 MG positive sera were assayed for binding to human AChR after incubation with immobilized alpha1-210 or BSA. […] We also tested immunoadsorption of the same set of MG sera by incubating 0.2 ug immobilized alpha1-210 with a fixed amount of anti-AChR antibodies (20 fmoles in variable volumes of MG sera depending on their titer) rather than a fixed serum volume.
Immunoadsorption of MG autoantibodies by immobilized gamma1-218 or epsilon1-219 domains. […]

[3] = test system: anti-AChR antibodies from MG sera; experiment: Immunoadsorption of anti-AChR antibodies from MG sera by immobilized epsilon1-219, RIA with human AChR from TE671-epsilon cells; type: binding
Description: A subset of […] sera was also tested with gamma1-218 immobilized on CNBr-Sepharose (gray bars) and a subset of 22 sera was screened against epsilon1-219 immobilized on CNBr-Sepharose (blank bars) as described in the Example 3. Sera which have not been tested for immunoadsorption with epsilon1-219 are indicated in the X axis with open circles and sera which have not been tested on both gamma1-218 and epsilon1-219 are indicated with filled circles.
Immunoadsorption of MG autoantibodies by immobilized gamma1-218 or epsilon1-219 domains. 0.1 mg[…] of purified gamma1-218 or epsilon 1-219 mixed with 1.4 mg BSA was covalently immobilized on 1 gr of CNBr-Sepharose according to manufacturer's protocol. In parallel, an identical column was prepared with 1.5 mg BSA, to serve as control. Variable amounts of MG patient sera containing 20 fmoles of anti-AChR antibodies were incubated with 1 ug immobilized gamma1-218 mixed with BSA or the same amount of BSA at 4° C. for 2-3 h followed by centrifugation Samples of the supernatants, each containing an amount corresponding to 6 fmoles of preadsorbed anti-AChR antibody, were subsequently tested in a typical RIA MG diagnostic test as above. Sera which had been incubated with gamma1-218 were screened with the human AChR from TE671 cells (which contains alpha, beta, gamma and delta subunits) whereas sera immunoadsorbed with epsilon1-219 were screened with human AChR from TE671-epsilon cells(which contains alpha, beta, gamma and epsilon subunits) (Beeson et al., Neurology, 47,1552-1555, 1996). The percentage of immunoadsorption was estimated as above. Several MG sera from the group of the sera tested with immobilized alpha1-210 were assayed for binding to human AChR after incubation with immobilized gamma1-218 (43 sera) or epsilon1-219 (22 sera) or BSA only. Incubation with gamma1-218 led to a 29-56% reduction for 16% of the tested sera (7 sera out of 43), whereas it caused a 15%-30% reduction in another 28% of the tested sera (12 sera) (FIG. 6, gray bars). Other tested MG sera reached up to 68% immunoadsorption by gamma1-218 (not shown). […]

[4] = test system: anti-AChR antibodies from MG sera; experiment: Immunoadsorption of anti-AChR antibodies from MG sera by CNBr-Sepharose-immobilized subunit domains, RIA with human AChR from TE671 cells; type: binding; details: expressed in E. coli, refolded, similarly immobilized, same MG sera

alpha-bungarotoxin [alpha-BTX]
IC50 [1]: 5 nM

B1: gamma1-218: extracellular domain of human muscle AChR gamma subunit, Pichia pastoris, FLAG and six-histidine tag (protein)
chain: DYKDDDDKRNQEERLLADLMQNYDPNLRPAERDSDVVNVSLKLTLTNLISLNEREEALTTNVWIEMQWCDYRLRWDPRDYEGLWVLRVPSTMVWRPDIVLENNVDGVFEVALYCNVLVSPDGCIYWLPPAIFRSACSISVTYFPFDWQNCSLIFQSQTYSTNEIDLQLSQEDGQTIEWIFIDPEAFTENGEWAIQHRPAKMLLDPAAPAQEAGHQKVVFYLLIQRK
modifications: glycosylated
reduction of anti-AChR antibodies, best-adsorbed sera ([2]; 16% of tested sera (7 of 43), 1 ug immobilized protein, 20 fmoles antibody): 29-56% | reduction of anti-AChR antibodies, intermediate sera ([2]; another 28% of tested sera (12 sera)): 15%-30% | immunoadsorption of anti-AChR antibodies (in words) [2]: lower but very significant percentages; also recorded: large fractions; also recorded: considerable amounts | maximal immunoadsorption in other tested MG sera ([2]; other tested MG sera (not shown)): up to 68% | immunoadsorption of serum no. 3 ([2]; serum no. 3, 1 ug of each immobilized subunit, 20 fmoles antibody): 22%

B2: epsilon1-219 (protein)
chain: DYKDDDDKKNEELRLYHHLFNNYDPGSRPVREPEDTVTISLKVTLTNLISLNEKEETLTTSVWIGIDWQDYRLNYSKDDFGGIETLRVPSELVWLPEIVLENNIDGQFGVAYDANVLVYEGGSVTWLPPAIYRSVCAVEVTYFPFDWQNCSLIFRSQTYNAEEVEFTFAVDNDGKTINKIDIDTEAYTENGEWAIDFCPGVIRRHHGGATDGPGETDVIYSLIIRRK
modifications: glycosylated
reduction of anti-AChR antibodies, best-adsorbed sera ([3]; 27% of screened sera (6/22)): 30-54% | reduction of anti-AChR antibodies, intermediate sera ([3]; another 45% of the sera (10/22)): 15%-30% | immunoadsorption of anti-AChR antibodies (in words) ([3]; immobilized on Sepharose-CNBr): lower but very significant percentages; also recorded: considerable amounts

B3: beta1-222: extracellular domain of human muscle AChR beta subunit, Pichia pastoris, FLAG and six-histidine tag (protein)
chain: DYKDDDDKMTPGALLMLLGALGAPLAPGVRGSEAEGRLREKLFSGYDSSVRPAREVGDRVRVSVGLILAQLISLNEKDEEMSTKVYLDLEWTDYRLSWDPAEHDGIDSLRITAESVWLPDVVLLNNNDGNFDVALDISVVVSSDGSVRWQPPGIYRSSCSIQVTYFPFDWQNCTMVFSSYSYDSSEVSLQTGLGPDGQGHQEIHIHEGTFIENGQWEIIHKPSRLIQPPG
modifications: glycosylated
immunoadsorption of anti-AChR antibodies (in words) [2]: lower but very significant percentages

B4: alpha1-208: extracellular alpha domain of human AChR expressed in E. coli and refolded according to Tsouloufis et al. (protein)
chain: SEHETRLVAKLFKDYSSVVRPVEDHRQVVEVTVGLQLIQLINVDEVNQIVTTNVRLKQQWVDYNLKWNPDDYGGVKKIHIPSEKIWRPDLVLYNNADGDFAIVKFTKVLLQYTGHITWTPPAIFKSYCEIIVTHFPFDEQNCSMKLGTWTYDGSVVAINPESDQPDLSNFMESGEWVIKESRGWKHSV
immunoadsorbing efficiency compared with yeast-expressed alpha domain [4]: significant but much lower | immunoadsorbing efficiency compared with yeast-expressed alpha domain ([4]; listed as alpha-subunit fragment expressed in E. coli): much lower level
